From US20190100518A1 (priority 2016, published 2019)

How the values were obtained:
[1] = assay type: physicochemical
[2] = target: T1, lysozyme (Gallus gallus, UniProt P00698); test: circular dichroism (CD) spectrum, higher-order structure of lysozyme; assay type: physicochemical; settings: 25° C.
T1 construct: purchased Sigma-Aldrich L-4919
Protocol: A keto-ABNO-lysozyme conjugate prepared by the same method as in Example 6 was dissolved in water, and the concentration was adjusted to 20 μM to provide an aqueous solution for a test group. On the other hand, lysozyme alone was dissolved in water, and the concentration was adjusted to 20 μM to provide an aqueous solution for a control group.
Using a circular dichroism (CD) dispersion meter Model 202SF (manufactured by AVIV Biomedical, Inc.), the CD spectrum of the aqueous solution in each of the test group and the control group was measured under the following conditions to perform analysis of the higher-order structure of the lysozyme in each aqueous solution.
On the other hand, control group A was prepared in the same manner as in the method described in Example 6 except that the same amount of water was added instead of the aqueous NaNO2 solution. As control group B, lysozyme alone (20 μM) was used. As control group C, a phenylmaleimide-lysozyme conjugate prepared by the method described in Example 15 was used.
Using a circular dichroism (CD) dispersion meter Model 202SF (manufactured by AVIV Biomedical, Inc.), the CD spectrum was measured for each of the test group and the control groups under the following conditions.

[3] = Example 16: 200 to 250 nm, compared with control groups A and B, FIG. 7

T1 sequence (P00698 19-147): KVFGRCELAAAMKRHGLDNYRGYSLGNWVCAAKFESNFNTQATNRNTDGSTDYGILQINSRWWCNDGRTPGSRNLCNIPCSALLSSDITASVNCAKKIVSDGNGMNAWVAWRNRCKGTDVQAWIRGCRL

[O]N1C2CCCC1CC(=O)C2 [keto-ABNO, keto-azabicyclo[3.3.1]nonane N-oxyl]
solubility in water [1]: dissolve in water

keto-ABNO-lysozyme conjugate: lysozyme bound to keto-ABNO at a tryptophan residue, prepared in water with NaNO2 and AcOH
higher-order structure of lysozyme (waveform of the CD spectrum) ([2]; Example 14: 20 μM in water, 200 to 250 nm, compared with lysozyme alone, FIG. 5): not influenced
higher-order structure of lysozyme (waveform of the CD spectrum) [2, 3]: maintained

phenylmaleimide-lysozyme conjugate: lysozyme bound to phenylmaleimide through a cysteine residue, cysteine modification method comparison [reference compound]
higher-order structure of lysozyme (waveform of the CD spectrum) [2, 3]: has changed
